Test results reported in patent US20070105796A1.

Target: TERT (telomerase reverse transcriptase), catalytic subunit of telomerase (human) (UniProt O14746)
Assay: cell-based or functional assay

Chain of TERT (telomerase reverse transcriptase), catalytic subunit of telomerase (human) (O14746 whole entry): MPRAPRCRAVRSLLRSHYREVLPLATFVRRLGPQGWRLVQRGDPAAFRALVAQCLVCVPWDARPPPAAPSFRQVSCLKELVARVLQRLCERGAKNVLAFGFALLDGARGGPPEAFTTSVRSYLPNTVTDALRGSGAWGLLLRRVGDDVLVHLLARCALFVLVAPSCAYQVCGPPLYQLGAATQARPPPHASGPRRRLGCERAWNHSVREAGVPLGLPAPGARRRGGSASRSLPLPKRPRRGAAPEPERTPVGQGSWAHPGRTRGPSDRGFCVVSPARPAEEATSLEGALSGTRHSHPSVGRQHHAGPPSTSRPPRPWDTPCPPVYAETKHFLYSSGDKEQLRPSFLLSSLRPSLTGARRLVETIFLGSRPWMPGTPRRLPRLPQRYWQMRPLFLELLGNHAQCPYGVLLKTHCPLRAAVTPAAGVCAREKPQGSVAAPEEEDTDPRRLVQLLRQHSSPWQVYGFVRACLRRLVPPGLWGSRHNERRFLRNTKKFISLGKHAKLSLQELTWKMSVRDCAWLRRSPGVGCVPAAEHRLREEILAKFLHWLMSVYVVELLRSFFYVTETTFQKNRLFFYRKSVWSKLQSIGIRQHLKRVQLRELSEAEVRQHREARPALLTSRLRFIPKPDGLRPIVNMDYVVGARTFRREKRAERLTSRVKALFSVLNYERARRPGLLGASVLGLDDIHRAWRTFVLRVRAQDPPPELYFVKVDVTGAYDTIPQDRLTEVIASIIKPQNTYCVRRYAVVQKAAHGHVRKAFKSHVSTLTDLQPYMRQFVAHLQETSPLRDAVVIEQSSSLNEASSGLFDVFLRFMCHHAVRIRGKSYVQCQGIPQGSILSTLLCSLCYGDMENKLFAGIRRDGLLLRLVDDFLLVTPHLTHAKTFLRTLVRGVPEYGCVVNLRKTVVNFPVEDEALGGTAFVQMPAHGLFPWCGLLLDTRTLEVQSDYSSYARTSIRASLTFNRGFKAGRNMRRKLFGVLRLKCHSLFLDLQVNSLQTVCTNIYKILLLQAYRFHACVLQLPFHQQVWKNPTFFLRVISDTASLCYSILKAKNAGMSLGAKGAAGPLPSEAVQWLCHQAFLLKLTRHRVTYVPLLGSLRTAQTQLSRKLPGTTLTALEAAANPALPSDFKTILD

## GST fusion active MAPKAPK3 (T201E/T313E) (from UniProt Q16644 1-382) (enzyme)
  telomerase activity (TRAP method) in dephosphorylated HEK293 cell nuclear extract after phosphorylation reaction: 1.5 fold

## N-terminal HA-tagged active MAPKAPK3 (T201E/T313E) (from UniProt Q16644 1-382) (enzyme)
  intracellular telomerase activity (TRAP method) in HEK293T cells against the negative control vector: 1.4 fold

## N-terminal HA-tagged inactive MAPKAPK3 (T201A/T313A) (from UniProt Q16644 1-382) (enzyme)
  intracellular telomerase activity (TRAP method) in HEK293T cells: 0.7 fold
